Measurements as given in US20150239929A1 (PORTOLA PHARMACEUTICALS, published 2015).

B1: r-Antidote (fXa derivative, cleaved two-chain polypeptide of SEQ ID NO: 2) (enzyme)
light: ANSFLFWNKYKDGDQCETSPCQNQGKCKDGLGEYTCTCLEGFEGKNCELFTRKLCSLDNGDCDQFCHEEQNSVVCSCARGYTLADNGKACIPTGPYPCGKQTLER
heavy: IVGGQECKDGECPWQALLINEENEGFCGGTILSEFYILTAAHCLYQAKRFKVRVGDRNTEQEEGGEAVHEVEVVIKHNRFTKETYDFDIAVLRLKTPITFRMNVAPACLPERDWAESTLMTQKTGIVSGFGRTHEKGRQSTRLKMLEVPYVDRNSCKLSSSFIITQNMFCAGYDTKQEDACQGDAGGPHVTRFKDTYFVTGIVSWGEGCARKGKYGIYTKVTAFLKWIDRSMKTRGLPKAKSHAPEVITSSPLK
notes: Made in CHO cells; the two chains are linked by a disulfide bond; also called target protein; functional protein
B2: Soybean Trypsin Inhibitor (STI), immobilised on affinity resin (other, Glycine max (soybean), UniProt P01070 25-205, looked up)
chain: DFVLDNEGNPLENGGTYYILSDITAFGGIRAAPTGNERCPLTVVQSRNELDKGIGTIISSPYRIRFIAEGHPLSLKFDSFAVIMLCVGIPTEWSVVEDLPEGPAVKIGENKDAMDGWFRLERVSDDEFNNYKLVFCPQQAEDDKCGDIGISIDHDDGTRRLVVSKNKPLVVQFQKLDKESL
notes: also called STI-Agarose

Legend:
[1] = target: Aprotinin, immobilised on agarose (Aprotinin-Agarose, catalog #A2268) (UniProt P00974 36-93); assay: affinity column loading, 1 mL resin, 20 mM Tris/150 mM NaCl pH 7.4
Description: Commercially available affinity resins were screened for their efficacy in purifying r-Antidote. Various affinity resins were packed into a column (such as a Tricorn column, GE) with 1 mL of resin. Following sanitization according to manufacturer's recommendations, the column was equilibrated with 20 mM Tris/150 mM NaCl at pH 7.4, followed by testing their ability to bind r-Antidote in the same buffer. r-Antidote at a concentration of 0.145 mg/mL in PBS (Phosphate Buffered Saline), was loaded onto the column at a flow rate of 1 mL/min by injection (1 mL).

[2] = target: B1; assay: affinity column loading of purified r-Antidote, 1 mL resin, 20 mM Tris/150 mM NaCl pH 7.4

binding result [2] | Binder | binding result [1]
 | B1 | no binding (tested: 0.145 mg/mL (1 mL injected))
binds | B2 | 
